Format in all cases: biochemical
The nature of assay [1]: Screening of protease for hemoglobin A1c determination (pH 7.5). The following applies: pH 7.5, 37° C. 60 minutes; 550 nm, reference 595 nm; FOD923 developing solution. How it is done:
(§1) A screening method is shown in which a protease that cleaves a glycated peptide from N-terminal-glycated pentapeptide of a hemoglobin β-chain without substantially cleaving a glycated amino acid or glycated peptide from N-terminal-glycated pentapeptide of a hemoglobin α-chain. Each 10 μl of a sample for screening was placed in 3 wells of a 96-well plate, respectively. Then, the first well was supplemented with 50 μl of an α-solution, the second well was supplemented with 50 μl of a β-solution, and the third well was supplemented with 50 μl of a control solution. After the plate was incubated at 37° C. for 60 minutes, 50 μl of distilled water and 50 μl of a developing solution were added, and the whole was left at room temperature for 30 minutes. Then, the absorbance at a measuring wavelength of 550 nm and a reference wavelength of 595 nm were determined using a Microplate Reader (model 550, manufactured by Bio-Rad), to select a sample having a difference in the absorbance between the β-solution-supplemented well and the control solution-supplemented well larger than a difference in the absorbance between the α-solution-supplemented well and the control solution-supplemented well. Thus the protease of object was screened. The samples to be used include: carboxypeptidase B (manufactured by Sigma-Aldrich Corp.); carboxypeptidase W (manufactured by Wako Pure Chemical Industries, Ltd.); carboxypeptidase Y (manufactured by Oriental Yeast Co., Ltd.); protease (type XXVII nagase: manufactured by Sigma-Aldrich Corp.); protease (type VIII Subtilisin Carlsberg: manufactured by Sigma-Aldrich Corp.); protease (type XXIV Bacterial: manufactured by Sigma-Aldrich Corp.); Proteinase K (manufactured by Wako Pure Chemical Industries, Ltd.); neutral proteinase (manufactured by Toyobo Co., Ltd.); carboxypeptidase A (manufactured by Wako Pure Chemical Industries, Ltd.); thermolysin (manufactured by Wako Pure Chemical Industries, Ltd.); and distilled water. To confirm a degree of color development caused by a developing solution, 10 μl of 1 mM FVH (manufactured by Peptide Institute Inc.) and 1 mM FVL (manufactured by Peptide Institute Inc.) were placed in a well severally, followed by adding 50 μl of the control solution. The whole was incubated at 37° C. for 60 minutes. Then, 50 μl of distilled water and 50 μl of the developing solution were added and the whole was left at room temperature for 30 minutes, followed by the determination in a similar manner as described above.
(§2) 0.2 mM α-Glycated pentapeptide (manufactured by Peptide Institute Inc.)
(§3) 0.09% 4-Aminoantipyrine (manufactured by Wako Pure Chemical Industries, Ltd.)
(§4) 0.06% TODB (manufactured by Dojindo Laboratories)
(§5) 15 U/ml Peroxidase (manufactured by Sigma-Aldrich Corp.)
(§6) Various bacteria were cultured with shaking in Difco Lactobacilli MRS Broth (manufactured by Becton, Dickinson and Company), a MM medium (2.5% mannose, 2.5% beer yeast extract, pH7.0), and a YPG medium (2% glucose, 1% polypeptone, 2% yeast extract, 0.1% potassium dihydrogen phosphate, 0.05% magnesium sulfate heptahydrate, pH 7.0) at a temperature of from 28 to 30° C. for 1 to 7 days. Then, cells were removed by centrifugation from the culture solutions to obtain culture supernatants. A sample was prepared by diluting the obtained culture supernatants 10-fold with a 10 mM potassium phosphate buffer (pH7.5), and the determination was performed in a similar manner as Example 1.

Test in assay [2]: as above
The settings on record: for β-Solution (absorbance, RAW DATA): pH 7.5, 37° C. 60 minutes, 550 nm, reference 595 nm, FOD923 developing solution. As for the experimental part:
as §1
(§7) 0.2 mM β-Glycated pentapeptide (manufactured by Peptide Institute Inc.)
as §3, §4, §5, §6

A short description of assay [3]: Screening of protease (pH 7.5), control solution without substrate. The settings on record: pH 7.5, no substrate; 550 nm, reference 595 nm. As for the experimental part: as §1, §3, §4, §5, §6
Assay [4] is described as follows: Screening of protease for hemoglobin A1c determination (pH 3.5). The following applies: pH 3.5, 37° C. 60 minutes; 550 nm, reference 595 nm; FOD923 developing solution. How it is done: (§8) A screening method is shown in which a protease that cleaves a glycated peptide from N-terminal-glycated pentapeptide of a hemoglobin β-chain without substantially cleaving a glycated amino acid or glycated peptide from N-terminal-glycated pentapeptide of a hemoglobin α-chain. Each 10 μl of a sample for screening was placed in 3 wells of a 96-well plate, respectively. Then, the first well was supplemented with 50 μl of an α-solution, the second well was supplemented with 50 μl of a β-solution, and the third well was supplemented with 50 μl of a control solution. After the plate was incubated at 37° C. for 60 minutes, 50 μl of pH-regulating solution and 50 μl of a developing solution were added, and the whole was left at room temperature for 30 minutes. Then, the absorbance at a measuring wavelength of 550 nm and a reference wavelength of 595 nm were determined using a Microplate Reader (model 550, manufactured by Bio-Rad), to select a sample having a difference in the absorbance between the β-solution-supplemented well and the control solution-supplemented well larger than a difference in the absorbance between the α-solution-supplemented well and the control solution-supplemented well. Thus the protease of object was screened. The samples to be used include: carboxypeptidase B (manufactured by Sigma-Aldrich Corp.); carboxypeptidase W (manufactured by Wako Pure Chemical Industries, Ltd.); carboxypeptidase Y (manufactured by Oriental Yeast Co., Ltd.); protease (type XXVII nagase: manufactured by Sigma-Aldrich Corp.); protease (type VIII Subtilisin Carlsberg: manufactured by Sigma-Aldrich Corp.); protease (type XXIV Bacterial: manufactured by Sigma-Aldrich Corp.); Proteinase K (manufactured by Wako Pure Chemical Industries, Ltd.); neutral proteinase (manufactured by Toyobo Co., Ltd.); and distilled water. To confirm a degree of color development caused by a developing solution, 10 μl of 1 mM FVH (manufactured by Peptide Institute Inc.) and 1 mM FVL (manufactured by Peptide Institute Inc.) were placed in a well severally, followed by adding 50 μl of the control solution. The whole was incubated at 37° C. for 60 minutes. Then, 50 μl of a pH-regulating solution and 50 μl of the developing solution were added and the whole was left at room temperature for 30 minutes, followed by the determination in a similar manner as described above.
(§9) 50 mM Acetate-sodium acetate (pH3.5)
as §2
(§10) 0.09% 4-aminoantipyrine (manufactured by Wako Pure Chemical Industries, Ltd.)
as §4, §5

Test in assay [5]: as above
The settings on record: for β-Solution (absorbance, RAW DATA): pH 3.5, 37° C. 60 minutes, 550 nm, reference 595 nm, FOD923 developing solution. As for the experimental part:
as §8, §9, §7, §10, §4, §5

A short description of assay [6]: Screening of protease (pH 3.5), control solution without substrate. The following applies: pH 3.5, no substrate; 550 nm, reference 595 nm. As for the experimental part:
as §8, §9, §10, §4, §5

B1: carboxypeptidase Y: carboxypeptidase Y (manufactured by Oriental Yeast Co., Ltd.) (protein, UniProt P00729 112-532, looked up)
Carboxypeptidase Y: KIKDPKILGIDPNVTQYTGYLDVEDEDKHFFFWTFESRNDPAKDPVILWLNGGPGCSSLTGLFFELGPSSIGPDLKPIGNPYSWNSNATVIFLDQPVNVGFSYSGSSGVSNTVAAGKDVYNFLELFFDQFPEYVNKGQDFHIAGESYAGHYIPVFASEILSHKDRNFNLTSVLIGNGLTDPLTQYNYYEPMACGEGGEPSVLPSEECSAMEDSLERCLGLIESCYDSQSVWSCVPATIYCNNAQLAPYQRTGRNVYDIRKDCEGGNLCYPTLQDIDDYLNQDYVKEAVGAEVDHYESCNFDINRNFLFAGDWMKPYHTAVTDLLNQDLPILVYAGDKDFICNWLGNKAWTDVLPWKYDEEFASQKVRNWTASITDEVAGEVKSYKHFTYLRVFNGGHMVPFDVPENALSMVNEWIHGGFSL
As for B1, the “α-Solution (absorbance, RAW DATA)” value in assay [1] is recorded as 0.240; in assay [4] it was 0.195. In addition, the “β-Solution (absorbance, RAW DATA)” value in assay [2] was found to be 0.209; in assay [5], 0.206. The “control solution (absorbance, RAW DATA)” value worked out at 0.031 in assay [3] and 0.034 in assay [6].

B2: protease type VIII: protease (type VIII Subtilisin Carlsberg: manufactured by Sigma-Aldrich Corp.) (protein, UniProt P00780 106-379, looked up)
Subtilisin Carlsberg: AQTVPYGIPLIKADKVQAQGFKGANVKVAVLDTGIQASHPDLNVVGGASFVAGEAYNTDGNGHGTHVAGTVAALDNTTGVLGVAPSVSLYAVKVLNSSGSGSYSGIVSGIEWATTNGMDVINMSLGGASGSTAMKQAVDNAYAKGVVVVAAAGNSGSSGNTNTIGYPAKYDSVIAVGAVDSNSNRASFSSVGAELEVMAPGAGVYSTYPTNTYATLNGTSMASPHVAGAAALILSKHPNLSASQVRNRLSSTATYLGSSFYYGKGLINVEAAAQ
For the molecule B2, the “α-Solution (absorbance, RAW DATA)” value in assay [1] was found to be 0.023; in assay [4] it was 0.019. In addition, the “β-Solution (absorbance, RAW DATA)” value in assay [2] was 0.020; in assay [5], 0.018. Besides, the “control solution (absorbance, RAW DATA)” value is given as 0.012 in assay [3] and 0.016 in assay [6].

B3: protease type XXVII: protease (type XXVII nagase: manufactured by Sigma-Aldrich Corp.) (protein, UniProt P00782 108-382, looked up)
Subtilisin BPN': AQSVPYGVSQIKAPALHSQGYTGSNVKVAVIDSGIDSSHPDLKVAGGASMVPSETNPFQDNNSHGTHVAGTVAALNNSIGVLGVAPSASLYAVKVLGADGSGQYSWIINGIEWAIANNMDVINMSLGGPSGSAALKAAVDKAVASGVVVVAAAGNEGTSGSSSTVGYPGKYPSVIAVGAVDSSNQRASFSSVGPELDVMAPGVSIQSTLPGNKYGAYNGTSMASPHVAGAAALILSKHPNWTNTQVRSSLENTTTKLGDSFYYGKGLINVQAAAQ
As to B3, the “α-Solution (absorbance, RAW DATA)” value in assay [1] came to 0.021; in assay [4], 0.025. Also, the “β-Solution (absorbance, RAW DATA)” value in assay [2] is 0.031; in assay [5], 0.021. Further, the “control solution (absorbance, RAW DATA)” value in assay [3] turned out to be 0.016; in assay [6] it was 0.019.

B4: carboxypeptidase B: carboxypeptidase B (manufactured by Sigma-Aldrich Corp.) (protein, UniProt P09955 111-416, looked up)
Carboxypeptidase B: TTGHSYEKYNNWETIEAWTKQVTSENPDLISRTAIGTTFLGNNIYLLKVGKPGPNKPAIFMDCGFHAREWISHAFCQWFVREAVLTYGYESHMTEFLNKLDFYVLPVLNIDGYIYTWTKNRMWRKTRSTNAGTTCIGTDPNRNFDAGWCTTGASTDPCDETYCGSAAESEKETKALADFIRNNLSSIKAYLTIHSYSQMILYPYSYDYKLPENNAELNNLAKAAVKELATLYGTKYTYGPGATTIYPAAGGSDDWAYDQGIKYSFTFELRDKGRYGFILPESQIQATCEETMLAIKYVTNYVLGHL
B4: the “α-Solution (absorbance, RAW DATA)” value in assay [1] came to 0.036; in assay [4] it was 0.063. Also, the results for the “specificity for β-chain over α-chain N-terminal glycated pentapeptide” value in assay [2] (pH 7.5) and in assay [5] (pH 3.5) were “cleave a glycated peptide from an N-terminal glycated pentapeptide of a hemoglobin β-chain without substantially cleaving” and “cleaves a glycated peptide from an N-terminal glycated pentapeptide of a hemoglobin β-chain without substantially cleaving”, respectively. Further, the results for the “β-Solution (absorbance, RAW DATA)” value in assay [2] and in assay [5] were 0.127 and 0.147, respectively. For the same molecule, the “control solution (absorbance, RAW DATA)” value in assay [3] is 0.028; in assay [6], 0.060.

B5: proteinase K: Proteinase K (manufactured by Wako Pure Chemical Industries, Ltd.) (protein, UniProt P06873 106-384, looked up)
Proteinase K: AAQTNAPWGLARISSTSPGTSTYYYDESAGQGSCVYVIDTGIEASHPEFEGRAQMVKTYYYSSRDGNGHGTHCAGTVGSRTYGVAKKTQLFGVKVLDDNGSGQYSTIIAGMDFVASDKNNRNCPKGVVASLSLGGGYSSSVNSAAARLQSSGVMVAVAAGNNNADARNYSPASEPSVCTVGASDRYDRRSSFSNYGSVLDIFGPGTSILSTWIGGSTRSISGTSMATPHVAGLAAYLMTLGKTTAASACRYIADTANKGDLSNIPFGTVNLLAYNNYQA
For B5, the “α-Solution (absorbance, RAW DATA)” value in assay [1] is recorded as 0.031; in assay [4] it was 0.024. Moreover, the “β-Solution (absorbance, RAW DATA)” value in assay [2] came to 0.077; in assay [5], 0.026. Moreover, the “control solution (absorbance, RAW DATA)” value in assay [3] is 0.017; in assay [6] it was 0.023.

The values are drawn from patent US7943337B2, “Method for screening a protease” (Asahi Kasei Pharma Corporation, priority 2003, dated 2011).
